Data from patent US9944719 (HOFFMAN LA ROCHE, dated 2018).

What was measured:
[1] = target: T1, human IL6 (Peprotech catalogue number 200-06) (human, UniProt P05231 30-212); test: Biacore, GH6L IgG1 captured on anti-light chain antibody immobilised on a CM5 chip (no GMCSF), concentration series of IL6 injected; five sensorgrams with fits [contd.]
T1 construct: Bought protein
Description: (§1) The antibody was expressed in human IgG1 format using standard mammalian expression vectors bearing GH6L heavy and light chain and signal peptide cDNAs, by transient transfection of HEK293-6E cells. Expressed IgG was affinity-purified using protein A resin. For Biacore™ analysis, GMCSF (Peprotech catalogue number 300-03) or an anti-light chain capture antibody was immobilized onto a CM5 chip using amine-coupling, resulting in 4000 RU and 12000 RU immobilized GMCSF and anti-light chain capture antibody, respectively.

[2] = target: T1, human IL6 (Peprotech catalogue number …); test: Biacore, GH6L IgG1 captured on GMCSF immobilised on a CM5 chip (GMCSF bound at the same time), concentration series of IL6 injected; five sensorgrams with fits [contd.]
Description: as §1

[3] = target: T2, human VEGF (Peprotech catalogue number 100-20) (human, UniProt P15692-4 27-191); test: SPR (Biacore), Fab captured by anti-light chain antibody on CM5 chip, VEGF 0-450 nM in flow
T2 construct: Bought protein
Description: Antibody libraries were selected against human VEGF (Peprotech catalogue number 100-20) and human IL6 (Peprotech catalogue number 200-06). Of the isolated parental antibody clones, IL6P and VEGFP were combined into the bi-specific antibody clone VH6L. […] To assess the affinities of parental and bi-specific antibodies, Biacore™ analysis was performed in order to analyze the binding behaviour of IL6P, VH6L and VEGFP. For this, an anti-light chain capture antibody was immobilized onto a CM5 chip using amine-coupling, resulting in 12000 RU. Fab fragments were captured to a level of 400-500 RU and a concentration series of IL6 and VEGF, ranging from 0 to 450 nM, was passed over the chip. As depicted in FIG. 7, clone IL6P binds to IL6, but not to VEGF, clone VEGFP binds to VEGF, but not to IL6, and the combined clone VH6L binds to both IL6 and VEGF.

T2 sequence (P15692 other isoform, or with tags, fused parts or gaps limits assumed): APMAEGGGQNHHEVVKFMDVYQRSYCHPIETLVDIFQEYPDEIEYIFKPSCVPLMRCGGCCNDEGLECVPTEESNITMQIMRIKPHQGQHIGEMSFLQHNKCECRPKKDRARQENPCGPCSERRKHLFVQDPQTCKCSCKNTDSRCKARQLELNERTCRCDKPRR

Row | koff [1] [s⁻¹] | kon [1] [M⁻¹ s⁻¹] | koff [2] [s⁻¹] | kon [2] [M⁻¹ s⁻¹] | Kd [3] [nM] | Binder
1 | 0.0017 | 57000 | 0.00045 | 24000 |  | GH6L (bispecific antibody, V domains shown, Specific for human GMCSF and human IL6, with two paratopes in one VH-VL pair; also called bi-specific antibody clone GH6L) VH: WVQLVESGGGLVQPGGSLRLSCAAKGALFSTYAMSWIRQAPGKGLEWIGQISGSGGSTVYNYNVLGRFTISRDNSKNTLYLQMNSLRAEDTAVYYCARDSGYFDIWGQGTLVTVSS VL: ATQRTQSPSSLSASVGDRVTITCRALWHISSYLAWYQQKPGKAPKLLIYAASWLYWDVPSRFSGSGSGTDFTLTISSLQPEDFATYYCQQYSGLPYTFGQGTKVEIKR
2 |  |  |  |  | 7.8 | VH6L (Fab, V domains shown, Bi-specific clone (VEGF and IL6, two paratopes in one VH-VL pair) combined from IL6P and VEGFP; Tested as a Fab fragment; also called bi-specific antibody clone VH6L; combined clone VH6L) VH: YYQLVESGGGLVQPGGSLRLSCAADGFLFSGYAMSWIRQAPGKGLEWIGQISGSGGSTVYNYNVLGRFTISRDNSKNTLYLQMNSLRAEDTAVYYCARDTGYFDHWGQGTLVTVSS VL: NIQKTQSPSSLSASVGDRVTITCRALWHISSYLAWYQQKPGKAPKLLIYAASHLHYGVPSRFSGSGSGTDFTLTISSLQPEDFATYYCQQYSGLPYTFGQGTKVEIKR
3 |  |  |  |  | 11 | VEGFP (Fab, V domains shown, Parental anti-VEGF clone, tested as a Fab fragment captured by an anti-light chain antibody in Biacore; the constant parts are human CH1 and CK; also called parental antibody VEGFP; clone VEGFP) VH: YYQLVESGGGLVQPGGSLRLSCAADGFLFSGYAMSWIRQAPGKGLEWIGQISGSGGSTYYNDNVLGRFTISRDNSKNTLYLQMNSLRAEDTAVYYCARDTGYFDHWGQGTLVTVSS VL: DTQMTQSPSSLSASVGDRVTITCRASQSISSYLAWYQQKPGKAPKLLIYAASHLHYGVPSRFSGSGSGTDFTLTISSLQPEDFATYYCQQYSSLPYTFGQGTKVEIKR
